Source: article PMC4599408

Target: GST-Kv4.3 NT (human)
Assay: pull-down

GST-Kv4.3 NT (human), sequence (Q9UK17 whole entry): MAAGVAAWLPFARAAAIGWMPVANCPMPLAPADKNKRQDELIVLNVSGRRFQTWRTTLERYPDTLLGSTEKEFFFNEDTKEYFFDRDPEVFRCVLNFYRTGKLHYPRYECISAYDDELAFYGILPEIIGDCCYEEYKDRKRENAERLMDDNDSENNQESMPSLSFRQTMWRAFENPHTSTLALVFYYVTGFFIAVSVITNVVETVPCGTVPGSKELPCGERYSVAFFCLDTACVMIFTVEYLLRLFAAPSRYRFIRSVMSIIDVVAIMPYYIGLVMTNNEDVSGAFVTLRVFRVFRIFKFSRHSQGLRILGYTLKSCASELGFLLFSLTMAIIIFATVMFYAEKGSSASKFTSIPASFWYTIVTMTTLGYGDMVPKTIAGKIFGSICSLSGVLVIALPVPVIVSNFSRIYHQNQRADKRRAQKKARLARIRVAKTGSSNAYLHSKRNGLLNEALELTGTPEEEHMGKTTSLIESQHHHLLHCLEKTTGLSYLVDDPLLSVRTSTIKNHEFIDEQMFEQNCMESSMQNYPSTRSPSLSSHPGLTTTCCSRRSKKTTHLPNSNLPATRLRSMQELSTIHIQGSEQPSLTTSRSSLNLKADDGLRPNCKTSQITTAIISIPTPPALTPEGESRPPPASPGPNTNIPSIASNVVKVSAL

DPP6-T p.H332R variant, in vitro translated and radiolabeled (natural protein)
fold binding activity relative to DPP6-T: > 2 fold
